Test results from patent publication US20240301069A1 (GUANGDONG FAPON BIOPHARMA, published 2024).

T1: human CD86 protein (Acrobiosystem), hCD86 hFc (human, UniProt P42081 26-247, limits assumed)
T1 construct: Bought; also called B7-2; not shown: human Fc
T1 sequence (looked up): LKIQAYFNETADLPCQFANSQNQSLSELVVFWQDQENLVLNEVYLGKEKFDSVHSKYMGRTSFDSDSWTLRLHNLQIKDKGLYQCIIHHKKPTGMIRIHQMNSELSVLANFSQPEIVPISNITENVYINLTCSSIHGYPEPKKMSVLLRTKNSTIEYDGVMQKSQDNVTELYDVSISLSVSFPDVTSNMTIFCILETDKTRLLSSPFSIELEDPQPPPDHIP

T2: human ICOSLG protein (Acrobiosystem), hICOSLGhFc (human, UniProt O75144 19-258, limits assumed)
T2 construct: Bought; also called B7-H2; not shown: human Fc
T2 sequence (looked up): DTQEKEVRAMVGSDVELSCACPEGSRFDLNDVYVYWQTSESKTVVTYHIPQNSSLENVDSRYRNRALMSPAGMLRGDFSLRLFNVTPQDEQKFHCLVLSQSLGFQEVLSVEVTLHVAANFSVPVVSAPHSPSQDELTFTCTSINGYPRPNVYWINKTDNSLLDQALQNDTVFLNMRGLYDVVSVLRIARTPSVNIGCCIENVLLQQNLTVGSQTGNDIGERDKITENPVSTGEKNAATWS

T3: human PD-L2 protein (Acrobiosystem), hPD-L2 hFc (human, UniProt Q9BQ51 20-219, limits assumed)
T3 construct: Bought; also called B7-DC; not shown: human Fc
T3 sequence (looked up): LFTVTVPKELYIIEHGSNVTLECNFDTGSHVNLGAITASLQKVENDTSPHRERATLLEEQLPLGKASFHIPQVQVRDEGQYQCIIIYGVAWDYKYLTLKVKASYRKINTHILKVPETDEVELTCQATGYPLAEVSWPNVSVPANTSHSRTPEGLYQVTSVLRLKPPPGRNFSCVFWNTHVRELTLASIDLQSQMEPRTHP

T4: human B7-H3 protein (Acrobiosystem), hB7-H3 hFc (human, UniProt Q5ZPR3-2 29-245, limits assumed)
T4 construct: Bought; not shown: human Fc
T4 sequence (looked up): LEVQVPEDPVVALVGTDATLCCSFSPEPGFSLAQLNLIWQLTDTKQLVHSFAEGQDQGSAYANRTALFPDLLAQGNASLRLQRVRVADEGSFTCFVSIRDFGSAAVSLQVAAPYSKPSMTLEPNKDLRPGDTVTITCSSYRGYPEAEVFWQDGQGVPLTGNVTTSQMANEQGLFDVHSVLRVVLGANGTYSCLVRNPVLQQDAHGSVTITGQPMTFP


Legend:
[1] = biological target: macaque PD-L1 on CHO-cynoPD-L1 stable cells (macaque, UniProt Q9NZQ7 19-290 (human entry)); test: flow cytometry, antibody titration on CHO-cynoPD-L1 cells, MFI-APC
Chain of macaque PD-L1 on CHO-cynoPD-L1 stable cells (Q9NZQ7 other isoform, or with tags, fused parts or gaps limits assumed): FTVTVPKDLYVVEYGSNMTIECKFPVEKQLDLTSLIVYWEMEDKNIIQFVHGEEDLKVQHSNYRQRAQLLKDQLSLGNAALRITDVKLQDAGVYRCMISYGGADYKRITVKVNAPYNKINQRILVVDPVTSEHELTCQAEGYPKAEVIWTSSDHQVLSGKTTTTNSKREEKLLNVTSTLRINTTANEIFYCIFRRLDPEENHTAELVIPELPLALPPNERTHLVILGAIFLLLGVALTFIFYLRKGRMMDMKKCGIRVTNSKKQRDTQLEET

[2] = biological target: T5, human CD28 protein (Acrobiosystem), hCD28 hFc (human, UniProt P10747 19-152); test: ELISA on coated hCD28 hFc
T5 construct: Bought; not shown: human Fc
Method: (§1) Supernatant was discarded; a blocking solution (1×PBS+1% BSA) was added in 200 μL/well; and blocking was performed for 1 h at 37° C. […] Washing was performed for 3 times with the 1×PBS. HRP-labeled goat anti-mouse IgG (sigma A0168-1ML) was added in 100 μL/well; incubation was performed for 30 min at 37° C. in a standing manner; and after washing was performed for 3 times with the 1×PBS, a color reaction was performed.

[3] = biological target: T1, human CD86 protein (Acrobiosystem), …; test: ELISA on coated hCD86 hFc
Method: as §1

[4] = biological target: T6, human PD-L1 on IFNγ-stimulated A375 cells (human, UniProt Q9NZQ7 19-290); test: flow cytometry, antibody titration on human IFNγ-stimulated A375 cells, MFI-APC
T6 construct: whole, on cells; PD-L1 of the A375 cells themselves; also called PD-L1 membrane protein
T6 sequence (Q9NZQ7 19-290): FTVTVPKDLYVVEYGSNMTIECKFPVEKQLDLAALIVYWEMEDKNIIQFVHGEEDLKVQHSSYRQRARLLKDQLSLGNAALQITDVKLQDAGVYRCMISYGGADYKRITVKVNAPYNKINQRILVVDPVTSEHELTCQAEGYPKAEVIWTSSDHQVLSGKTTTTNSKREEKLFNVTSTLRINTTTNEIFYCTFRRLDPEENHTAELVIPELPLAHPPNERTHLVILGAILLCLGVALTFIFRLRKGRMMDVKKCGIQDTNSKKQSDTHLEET
Method: An experimental process included the following.
50 ng/mL of the human IFNγ (R&D) was used to stimulate the expression of human PD-L1 on human melanoma cells A375 (Shanghai cell bank) overnight; on the next day, 0.25% pancreatin (Gibco) was used to digest the A375 cells; after washing was performed once with DPBS, live cell density was adjusted to 2E6/mL; and the mixture was added into the 96-well V base plate in 100 μL/well. […] The mixture was added into the cells in 100 μL/well; and incubation was performed on ice for 30 min in a standing manner, then 250×g was taken to perform centrifugation for 5 min, and supernatant was discarded in a sucking manner. After washing was performed for 2 times with the 1×FCM buffer, iFluor™633GAM fluorescent secondary antibodies (ATT bioquest) diluted by the 1×FCM buffer (dilution ratio being 1:400) were added in 100 μL/well; and incubation was performed on ice for 30 min. After 250×g was taken to perform centrifugation for 5 min, supernatant was discarded in a sucking manner. After washing was performed for 2 times with the 1×FCM buffer, the cells were resuspended by adding the 1×PBS in 100 μL/well; and the flow cytometer (Beckman, CytoFLEX) was used for detection.

[5] = biological target: T7, human CTLA-4 protein (Acrobiosystem), hCTLA-4 hFc (human, UniProt P16410 37-162, limits assumed); test: ELISA on coated hCTLA-4 hFc
T7 construct: Bought; not shown: human Fc
T7 sequence (P16410 37-162 limits assumed): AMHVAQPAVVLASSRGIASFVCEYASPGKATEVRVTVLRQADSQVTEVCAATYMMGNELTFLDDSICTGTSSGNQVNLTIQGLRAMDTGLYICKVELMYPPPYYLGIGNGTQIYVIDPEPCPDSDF
Method: as §1

[6] = biological target: T2, human ICOSLG protein (Acrobiosystem), …; test: ELISA on coated hICOSLG hFc
Method: as §1

[7] = biological target: T8, human PD-L1 extracellular domain recombinant protein hPD-L1-his (human, UniProt Q9NZQ7 19-238); test: BLI (ForteBIO QKe), hPD-L1-his captured on an anti-Penta-HIS sensor, antibody in solution
T8 construct: extracellular domain; Home-made; also called human PD-L1 recombinant protein; not shown: his label
T8 sequence (Q9NZQ7 19-238): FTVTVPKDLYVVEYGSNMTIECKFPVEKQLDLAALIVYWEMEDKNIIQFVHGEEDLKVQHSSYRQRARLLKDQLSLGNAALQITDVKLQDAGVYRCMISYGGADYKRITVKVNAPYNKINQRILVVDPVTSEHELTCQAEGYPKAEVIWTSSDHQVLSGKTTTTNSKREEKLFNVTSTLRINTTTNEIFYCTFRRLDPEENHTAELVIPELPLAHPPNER
Method: An experimental method included the following.
An equilibration buffer (1×PBS+0.02% Tween20) was used to dilute a home-made human PD-L1 extracellular domain recombinant protein hPD-L1-his carrying a his label, until a final concentration reached 5 μg/mL. […] The whole reaction was undergone at 25° C. and 1000 rpm.

[8] = biological target: T3, human PD-L2 protein (Acrobiosystem), …; test: ELISA on coated hPD-L2 hFc
Method: as §1

[9] = biological target: T4, human B7-H3 protein (Acrobiosystem), …; test: ELISA on coated hB7-H3 hFc
Method: as §1

[10] = biological target: T9, human PD-L1 full-length protein on CHO-hPD-L1 stable cells (human, UniProt Q9NZQ7 19-290); test: flow cytometry blocking assay (method 1): antibody titrated on CHO-hPD-L1 cells; blocked ligand recombinant human PD-1-hFc
T9 construct: also called membrane protein PD-L1
T9 sequence (Q9NZQ7 19-290 limits assumed): as the sequence (Q9NZQ7 19-290) above
Method: […] The 1×FCM buffer was used to resuspend the CHO-hPD-L1 cells to the cell density of 2×10E6/mL, and the cells were evenly spread in the 96-well V base plate in 100 μL/well. […] After 250×g was taken to perform centrifugation for 5 min, supernatant was discarded in a sucking manner. After washing was performed for 2 times with the 1×FCM buffer, the cells were resuspended by adding the 1×PBS in 100 μL/well; and the flow cytometer (Beckman, CytoFLEX) was used for detection.

[11] = biological target: T9, human PD-L1 full-length protein on …; test: flow cytometry, antibody titration on CHO-hPD-L1 cells, MFI-APC
[12] = biological target: T10, recombinant human PD-L1 protein carrying a hFc label (human, UniProt Q9NZQ7 19-238); test: flow cytometry blocking assay (method 2): antibody titrated; binding of recombinant human PD-L1-hFc to PD-1 on CHO-hPD-1 cells is blocked
T10 construct: Self-produced; also called hPD-L1 hFc; PD-L1-hFc; not shown: human Fc label
T10 sequence (Q9NZQ7 19-238): as the sequence (Q9NZQ7 19-238) above
Method: The 1×FCM buffer was used to dilute the self-produced recombinant human PD-L1 protein carrying hFc, until the concentration reached 2 μg/mL. The 1×FCM buffer was used to resuspend the CHO-hPD-1 cells to the cell density of 2×10E6/mL, and the cells were evenly spread in the 96-well V base plate in 100 μL/well. […] After 250×g was taken to perform centrifugation for 5 min, supernatant was discarded in a sucking manner; after washing was performed once with the 1×FCM buffer, APC-labeled goat anti-mouse Fc fluorescent secondary antibodies (Biolegend) diluted by the 1×FCM buffer (dilution ratio being 1:500) were added in 100 μL/well; and incubation was performed on ice for 30 min. After 250×g was taken to perform centrifugation for 5 min, supernatant was discarded in a sucking manner. After washing was performed for 2 times with the 1×FCM buffer, the cells were resuspended by adding the 1×PBS in 100 μL/well; and the flow cytometer (Beckman, CytoFLEX) was used for detection.

[13] = biological target: T9, human PD-L1 full-length protein on …; test: flow cytometry blocking assay: antibody titrated on CHO-hPD-L1 cells; blocked ligand recombinant human CD80-hFc
[14] = biological target: T2, human ICOSLG protein (Acrobiosystem), …; test: ELISA on coated hFc fusion protein
Method: as §1

[15] = biological target: T3, human PD-L2 protein (Acrobiosystem), …; test: ELISA on coated hFc fusion protein
Method: as §1

| EC50 [1] [nM] | binding result [2] | binding result [3] | EC50 [4] [nM] | binding result [5] | binding result [6] | Kd [7] [nM] | binding result [8] | binding result [9] | IC50 [10] [nM] | EC50 [11] [nM] | IC50 [12] [nM] | IC50 [13] [nM] | binding result [14] | binding result [15] | Binder |
| --- | --- | --- | --- | --- | --- | --- | --- | --- | --- | --- | --- | --- | --- | --- | --- |
| 1.29 | no binding (tested: 10 µg/mL) | no binding (tested: 10 µg/mL) | 0.175 | no binding (tested: 10 µg/mL) | no binding (tested: 10 µg/mL) | 0.101 | no binding (tested: 10 µg/mL) | no binding (tested: 10 µg/mL) | 6.9 | 1.25 | 1.69 |  |  |  | F016-568 (antibody, V domains shown, Mouse hybridoma monoclonal antibody; also called anti-human PD-L1 antibody F016-568) VH: QLQESGPSLVKPSQTLSLTCSVTGDSITSDYWNWIRKFPGNKLEYMGYISYTGSTYYNPSLKSRISITRDTSKNQYYLQLNSVTTEDTATYYCAKQGGWLNAMDYWGQGTSVTVSS VL: not shown |
| 0.949 | no binding (tested: 10 µg/mL) | no binding (tested: 10 µg/mL) |  | no binding (tested: 10 µg/mL) | no binding (tested: 10 µg/mL) | 0.0742 | no binding (tested: 10 µg/mL) | no binding (tested: 10 µg/mL) | 5.22 | 1.1 | 1.61 | 4.91 |  |  | F016-870 (antibody, V domains shown, Mouse hybridoma monoclonal antibody; also called anti-human PD-L1 antibody F016-870) VH: EVQLQESGPSLVKPSQTLSLTCSVTGDSITSGYWNWIRKFPGNKLEYMGYISYTGSTYQNPSLKSRISFTRDTSKNQYYLQLSSVTTEDTATYYCARSRAWIRTYFDYWGQGTTLTVSS VL: EIVLTQSPALMAASPGEKVTITCSVSSSISSSNLHWYQQKSETSPKPWIYGTSNLASGVPVRFSGSGSGTSYSLTISSMEAEDAATYYCQQWSSYPLTFGAGTKLELKR |
| 0.947 | no binding (tested: 10 µg/mL) | no binding (tested: 10 µg/mL) | 0.151 | no binding (tested: 10 µg/mL) | no binding (tested: 10 µg/mL) | 0.0566 | no binding (tested: 10 µg/mL) | no binding (tested: 10 µg/mL) | 5.2 | 0.502 | 1.18 | 4.11 |  |  | F016-21 (antibody, V domains shown, Mouse hybridoma monoclonal antibody purified from clone supernatant; also called anti-human PD-L1 antibody F016-21) VH: EVQLQQSGPELVKPGASVKMSCKASGYTFTDYVMHWVKQKPGQGLEWIGYINPYNDGTKFNEKFKGKATLTSDKSSSTAYMELSSLTSEDSAVYYCAKQTLDYWGQGTSVTVSS VL: DIVLTQSPASLAVSLGQRATISCRASESVEYFGTTLMQWYQQRPGQPPKLLIYAASNVESGVPARFSGSGSGTDFSLNIHPVEEDDIAMYFCQQSRKVPYTFGGGTKLEIKR |
|  | no binding (tested: 10 µg/mL) | no binding (tested: 10 µg/mL) | 0.128 | no binding (tested: 10 µg/mL) |  | 0.0098 |  | no binding (tested: 10 µg/mL) | 4.98 | 0.561 | 0.993 | 4.47 | no binding (tested: 10 µg/mL) | no binding (tested: 10 µg/mL) | F016-193 (antibody, V domains shown, Mouse hybridoma monoclonal antibody; also called anti-human PD-L1 antibody F016-193) VH: EVQLQQSGPELVKPGASVKMSCKASGYTFTSYVMHWVKQKPGQGLEWIGYINPHNDGNKYNEKFKGKATLTSDKSSSSAYMELSSLTSEDSAVYYCAKQTMDYWGQGTSVTVSS VL: DIVLTQSPASLAVSLGQRATLSCRASESVEFYGTTLMQWFQQKPGQPPKLLIYAASNVESGVPARFSGSGSGTDFSLNIHPVEEDDIAMYFCQQSRKVPYTFGGGTKLEIKR |
